Test: soluble on expression in E. coli; label from the status in PepcDB or PDB records

| Sequence | soluble on expression in E. coli |
| --- | --- |
| MGSDKIHHHHHHESEDPWLVLQKAARAAHELSYKGVFIYQAGDNIKSVQITHTNSGQGEYARMVVLDGAPREVLSQGGDVVIFSSKNEKVIMEKRRAHNLFPAVLPDDMELLKANYQARIGGTERIAGRAGRVVFLDPRDGLRYAYKFWADCEYGLLLKSLMLSEQKQMLEQMAFSQLNMMEEQGMDWFHPSVDHSKHYILEEANAQLVQEASNWTVGALPVGYRKVEQVTRLVPGKSAPVTQVIFTDGLASVSLFIEPLSKGVRPRIGQTSKGATHFYANVSKGHQILVVGEVPAATVAQIGSAVSFK | not soluble |
| MSLDTFKNKPLGDNFTLTDSNGNTITEADIRSKPSIIFFGFTMCPESCPTTLTNLDRWLTSLGADADKLGVWFVTVDPERDTPEVLHDYLSNFNHKIVGISGEPEKVHKMVDSFNIVAEKVPGTDGNYTYNHTAAIFLLKKGGKLAGVIPYKIEKNNEELRDNIAIEKLKQLVLNEGHHHHHH | soluble |
| MGYTKAEILKALKGENVKFLRLQITDILGVVKNVEVPESQFEKALDGEIMFDGSSIEGFTRIEESDMLLRPDYNTFVILPDLVEDPKRGRVARLICDVYYPDGRPFEGDPRYVLKRQIERLKKLGFDNLYAGPEPEFFLFLRTPEGLPTTETHDRAGYFDLAPIDKGEEARRDMVNALVAMGFEIEAAHHEVAPGQHEIDFKYADALTTADNIATFKWVVKRIALNHGLHATFLPKPIRGINGSGMHTHLSLFKDGENAFYDPNAEYQLSQTALHFIAGLLEHAAGMVAVTNPLVNSYKRLTPGYEAPTNIAWSASNRSAMIRIPARRGVGTRAELRMPDPSCNPYLALAVMAAAGADGIERKLLPPPPIQRNIYQMTVRERRKHKIRELPGTLREALEALRKDPVIREALGEHVYTHFLQAKQMEWDDYRVTVHQWELDRYLATY | soluble |
| ELYVVASPKSPIMEINKEQLSALYLGRNRVVGNTYINQVLDRSGTVRQRFFLQVTNMQESQINAYWAKLKFSGRLRAPESVVSEQELIAKLEENPFSIGYTDQVPSDALKVLLVL | not soluble |
| TEQKQKHMEQLSDKNGIISALAFDQRGALKRLMAKYQSEEPTVSQIEALKVLVAEELTPYASSMLLDPEYGLPATKVLDDNAGLLLAYEKTGYDTSSTKRLPDCLDIWSAKRIKEEGADAVKFLLYYDVDSSDEVNEEKEAYIERIGSECVAEDIPFFLEILSYDEKITDSSGIEYAKIKPRKVIEAMKVFSNPRFNIDVLKVEVPVNMDYVEGFAQGETAYNKATAAAYFREQDQATLLPYIFLSAGVPAQLFQETLVFAKEAGAKFNGVLCGRATWAGSVKEYVEKGEAGARQWLRTIGFQNIDELNKILQKTATSWKE | soluble |
| MFSISLLSCLFLGTVPALAQTGGERRLSPEKSEIWGPGLKAHVVLPVRYFYIRAVDTSGEQFTSSPGEKVFQVKISAPDEQFTRVGVQVLDRKDGSFIVRYRMYASYRNLKIEVKHHGQHVAESPYVLRGPVYHENCDCPLEDSAAWLREMNCSETISQIQKDLAHFPTVDPEKIAAEIPKRFGQRQSLCHYTLKDNKVYIKTHGEHVGFRIFMDAILLSLTRKVRMPDVEFFVNLGDWPLEKKKSNSNIQPIFSWCGSTESRDIVMPTYDLTDSVLETMGRVSLDMMSVQANTGPPWESKNSTAVWRGRDSRKERLELVKLSRKHPELIDAAFTNFFFFKHDESLYGPIVKHISFFDFFKHKYQINIDGTVAAYRLPYLLVGDSVVLKQDSIYYEHFYNELQPWKHYIPVKSNLSDLLEKLKWAKEHDAEAKKIAKAGQEFARNNLMGDDIFCYYFKLFQGYANLQVSEPQIREGMKRVEPQSEDDLFPCTCHRRKAKDEL | soluble |
| MSLRSDSFEILRDCRALFLKHLGALLLDSGIISGSAIRAIQEGAGAYFDEMVSTTRRGSFSEEAHGLTSSRITLVGEDDLELGIRLDNLSARLFETTGGSLWRTHLRFVTLLRRPDLPKSANPIGPKGICQGLTTMFAASGASSIEQKLALLDRIEVYLLANLPGLYAEINDFLDRGGIEAAQATILGSPDGPKQADQSSANPLLALQQQLLARLPGGIASIQPPTGTGGAAASLLSQASLEQLIFRLNELDRQGAFRAQFKPGTSLSTESLIPELFSGSTAKASLPKALNSAELGIPSTATEGLAIDTLAIIFEAIFSEPTLPDTLKAAISSLQITLLKMAMKDASLFTDDKHPARLVIDRMGQAVLGLPTDVPARHPVCARLFEIASQLRSGNGDISAFQSALTQLDALVAERNNELAKSAAAYLPLLRQLDRRDEASIQTRHILDKLIEQKPPEAVQAFLNESWRKVLQLVWLENGPDSSQWQAHVTAIEELLWSFQPKTDPAERKSLAHRLPNILKLLKTGMERIGLPTEAQEAFLDDCFTLQTQALRAAPAAETGATSVIAATGLHASGSETVYGDVQSGQFVLNTLDFSDYQPGPARSLSCAIGDWLELRIDDSTTRVARICYISPNSQRTLLLNPDFGLALAIHPAILDRQLRAGEARIRSASSLFEIAASRALQKTTTNEGHHHHHH | soluble |
| MGSDKIHHHHHHMSLTPVLDKIDSDVSAATDRLLELLRIPSISTDPAYKADCDAAADWLVKDLNSIGIKAEKRETPGHPMVVGHVGEENTKGPHLLFYGHYDVQPVDPLNLWNTPPFEPQLEETPNGTVIRGRGASDDKGQLMTFVEACRAWQAVHGTLPCRITFFFEGEEESGSPSLIPFLEAAKEELSADIALICDTSMVARGVPLVASQLRGMMKDEFTLIGPKIDLHSGHYGGPGLNPLREISHIIASFHDPDTGAVAVEGFYEGVPEVPADILRQWEGCGFDEKDYLSNAGYTEAHGEKKYSTLEQQWARPTLEINGLWGGYQGAGTKTVIPSEAHCKITCRLVGDMDPADLRQKIRKHVEDRLPTDCTVKWDLDLDGAPAYVIDTTRPEFEAARGALTEEWNREAVFSGMGGSIPVAGYFKSILGMDAMLIGFANEDDAIHSPNEKYDLESFHKGIRSWARVLDALSKA | not soluble |
| MKRIFVQNRELVVPGTLLAQGPYKNGRGTFREGSRIYSTVIGLVDIKGNTIRVIPLEGPYIPEVGDNVIGKIVDVKFSSWVVDIGAPYLANLKIQDFTDEKIDLLRTDLRKFFDIGDIIYGKVKAITEVNNIDLTTKGMPFNGGPLKGGQIVKITPSRVPRVIGRGGSMINMIKKLTMTRIIVGQNGWIWVNGKNEALEKLAIEAILKIDRESHTKGLTDRIKSLLLSRLQELKEKGVIEEIPELEEEPQEETEVNNNDGETRRT | soluble |
| MARVVVDAQAARAIGKGAMIVFKKGVVRVEGDIKPGDIVEVYTRGGKFLGKGFANPNSNIMVRIVTKDKDVEINKDLFKRRIKKANEYRKKVLKYTNVYRMVYGEADYLPGLIVDRFNDIASLQISSAGMERFKLDVAEAIMEVEPGIETVFEKNTGRSRRREGLPEIERVLLGKEKYRTIIQEGRAKFIVDMRGQKTGFFLDQRENRLALEKWVQPGDRVLDVFTYTGGFAIHAAIAGADEVIGIDKSPRAIETAKENAKLNGVEDRMKFIVGSAFEEMEKLQKKGEKFDIVVLDPPAFVQHEKDLKAGLRAYFNVNFAGLNLVKDGGILVTCSCSQHVDLQMFKDMIIAAGAKAGKFLKMLEPYRTQAPDHPILMASKDTEYLKCLFLYVEDMR | soluble |
| MSLKLRGHHLICLQFFRGEGYSGEFVENVKKIMERLESGETVEVVAGVDDICVACPYNRGYCGKDETSEERVREMDKAAVRLLGVSEKTTWREVAERIEKVLNEWRVFCEDCDWKEVCYGEGHHHHHH | soluble |
| MSAPPTAPADPSTGSDRPKRSVPPPRHPTHAVDRAFLDLERRRPEVRWDAGGVAYLSGPPPSLADLRAYVAFRLGELPLLTSRVTGGRRPGWQPSEDFPVDRHVYEVVADGPADWDTALHSALNAPFAPGAYWGVWLIHGHEPDAYALCYRFLHACQDGSAAAMTFRAMLGDGEPSARPLPGGSGVFGVPRRFGAAVALATRFLARTFTVRRHRPDPAFAPAGERRLWRGRVPVDTLRLIGAGRGGSAHDAHLAALAGALSVWAARSGVPLPRVTAVLPVDARRADEEQTWGNRCFALPVDLPVGPAPGRPDGSPDEEAPLRRLDQIMAVTRKLRGDTWRQAVQDLVRYMPDRPTAWYLRRMLSPRVTNVMATSMPLAEKGSLGETRVTGTALLPLLVPGHLCGVGLSFFGDWAEVSFVADRALPLGELLPELWEQAVRELAESVQRGLEHHHHHH | not soluble |
| MSTQVQDRIHDRRELTAVLLRALEQRHEVLDAIVDSEDHAEALTTVAGLLDTSEAYAEAVLNLTFRRLTKVERLRIQTELKDLDATLEWTSTDRPASTGRNFRLRPFTDTEEDAELFRRRCGEQVDDAGAQWSEDRVEKERTEGLSRVDDESAAWFVCEDTAENTAVGMVFGELSGREVDVAIWIAPDARKKGYGTAAVKHSRQELAAEFPGTVLVVR | not soluble |
| GMAEQMRRVARLFGDWPETIIWTCLEGTMGDIYVDDSQSPQSALALYGRQSFFGFLAGQPHRDLLKICEGKNIILVPQNQAWSDLIEEVYGDGVRFFTRYATKKDTEFDLGHLQKLVDDLPESFDMKLIDRNLYETCLVEEWSRDLVGNYIDVEQFLDLGLGCVILHKGQVVSGASSYASYSAGIEIEVDTREDYRGLGLAKACAAQLILACLDRGLYPSWDAHTLTSLKLAEKLGYELDKAYQAYEWR | soluble |
| MAEETIFSKIIRREIPSDIVYQDDLVTAFRDISPQAPTHILIIPNILIPTVNDVSAEHEQALGRMITVAAKIAEQEGIAEDGYRLIMNTNRHGGQEVYHIHMHLLGGRPLGPMLAHKGL | soluble |
| MGHDIDQVAPLLREPANFQLRTNCDPHEDNFGLRAHGPLVRIVGESSTQLGRDFVWQAHGYEVVRRILGDHEHFTTRPQFTQSKSGAHVEAQFVGQISTYDPPEHTRLRKMLTPEFTVRRIRRMEPAIQSLIDDRLDLLEAEGPSADLQGLFADPVGAHALCELLGIPRDDQREFVRRIRRNADLSRGLKARAADSAAFNRYLDNLLARQRADPDDGLLGMIVRDHGDNVTDEELKGLCTALILGGVETVAGMIGFGVLALLDNPGQIELLFESPEKAERVVNELVRYLSPVQAPNPRLAIKDVVIDGQLIKAGDYVLCSILMANRDEALTPDPDVLDANRAAVSDVGFGHGIHYCVGAALARSMLRMAYQTLWRRFPGLRLAVPIEEVKYRSAFVDCPDQVPVTW | soluble |
| MSENNKIILYQDDNEIIRVSVRFSDEDLWLTQNQLAEIYCTTQQNISQHVDNIYKDGELFTEATNKKFLLVRQEGNRQVRRNIDHYNLDMVIALGYRVQSQVATRFRRWATQRLHEYIQKGFAMDDERLKQGGNRYFRELLQRIRDIRSSERNFYQQVTDIYATATDYDPRDEMTKMFFATVQNKLHYAVHENTAAEVIYNRVDNEKPFVGMTNFKGNYVTKDDVKIAKNYLSEIELQRLNLLVSGFLDFAEFQALEMNPMTMKDWIEALDNQIIAHKRKVLIDKGRISHKQAIEKAEKEFAIYRKREMDLLESDFDKEIKRLKDKNDNNPN | not soluble |
| MGSDKIHHHHHHMPESAEAQVKEALLALLKDRDIQHITMKEIAEKAKVSRGSLYLYYEDKFSIIEDVIEDMKEGLGKALFDAFSHMDTLHLNKKRQTVHPTLSFVHEHRSFFSVMMNRGHFHRFFKDVFQQDVLLAPIHVNLTPIERDIYGHYRALYTYAIILYWLNEDAAASPEAISQKVWELVSQKRFYWLFGKAVPGEREKEKQIDRRVVRTREALQKAFLDVLAEKQDYAGITISDITRKSNIRRATFYDHYANKEELLQTMIQRSCAEIIDHLTIASSPNEFSLKEAEKALAILLSALSNMPIVHFLNREWGVPHVIPDMFKALESFYLHQQTDIHAEKKLYAHYVSAMIIGLLLYRLDEGKAHPPEVLAREFLQFLDVKKYKVVLL | not soluble |
| MSVDKSPVYEVKAVPVEKVLANDYNPNVVAPPEMKLLELSIWEDGFTMPCVCYYNKEEDNYILVDGYHRYTVLKTSKRIYKRENGLLPIVVIDKDLSNRMSSTIRHNRARGMHN | soluble |

From the DeepSol protein solubility set
